Like-named read-outs stand apart in the source and are kept apart here. Blank lines part the entries; values can stand above or below the molecule they belong to.
Tests used:
[1] = system: human DHFR (wild type and variants); test: Inhibition constants (Ki) of antifolates for DHFR variants from steady state reaction rates; format: biochemical; conditions: for Ki Kcat/km relative: relative to wt = 1, MTX
From the text: The first parameter, Ki, is the “inhibition constant” and reflects the level of inhibition by a given compound. Ki, is obtained from steady state reaction rates observed for mixtures of enzyme, cofactor. 7,8-dihydrofolate (the normal substrate) and variable levels of antifolate. The higher the value of Ki, the higher the concentration of antifolate required to inhibit the activity of the enzyme on the normal substrate.
(§1) The parameters Km and kcat can be combined to provide a measure of overall catalytic efficiency which is given by kcat/Km. High levels of catalytic efficiency are preferred.

[2] = system: human DHFR (wild type and variants); test: Kinetic parameters (Km, kcat) of purified DHFR variants with 7,8-dihydrofolate; format: biochemical
Procedure: Km or the “Michaelis constant” reflects the ability of an enzyme to convert a given substrate to product. In this case, the substrate is the normal substrate, 7,8-dihydrofolate. Km is determined using a double reciprocal plot of the initial velocity of the reaction as a function of the concentration of the substrate. Higher values of Km reflect a decreased affinity for the normal substrate.
kcat reflects the catalytic turnover of the enzyme. kcat values are obtained by active site titration experiments using MTX or from activity and total protein measurements of purified enzyme species.
as §1
Enzyme expressed by the transformed E. coli was purified using an MTX-affinity column, followed by DEAE-Sephacel column chromatography.

Molecule: N[C@@H](Cc1ccc(O)cc1)C(=O)O [22 tyrosine, reference compound]
Ki Kcat/km relative [1]: 104

Ki ([1]; inhibitor aminopterin, read-out: Ki APT): 1.8 pM
Ki ([1]; inhibitor methotrexate, read-out: Ki (MTX)): 1.2 pM
Ki ([1]; inhibitor piritrexin, read-out: Ki PTX): 132 pM
Ki ([1]; inhibitor trimetrexate, read-out: Ki TMTX): 13 pM
B1: wild type: wild-type human dihydrofolate reductase, leucine at amino acid 22 and phenylalanine at amino acid 31 (protein, UniProt P00374 1-187, looked up)
Dihydrofolate reductase: MVGSLNCIVAVSQNMGIGKNGDLPWPPLRNEFRYFQRMTTTSSVEGKQNLVIMGKKTWFSIPEKNRPLKGRINLVLSRELKEPPQGAHFLSRSLDDALKLTEQPELANKVDMVWIVGGSSVYKEAMNHPGHLKLFVTRIMQDFESDTFFPEIDLEKYKLLPEYPGVLSDVQEEKGIKYKFEVYEKND
kcat [2]: 12.7 s⁻¹
Km ([2]; substrate 7,8-dihydrofolate, read-out: Km (H2folate)): 0.08 µM
Ki Kcat/km ([1]; product of Ki (MTX) and catalytic efficiency): 0.191 s⁻¹
Ki Kcat/km relative [1]: 1

Reference: patent publication US6887467B1, “Double mutants of dihydrofolate reductase and methods of using same” (Sloan-Kettering Institute for Cancer Research, priority 1996, dated 2005)
